Source: patent publication US7638490B2, “Methods of affecting feeding and weight in mammals by administration of relaxin-3” (priority 2004, dated 2009)

B1: relaxin-3: polypeptide called relaxin-3 (INSL7) comprising the amino acid sequence of SEQ ID NO: 2; natural ligand of SALPR (protein, listed as Homo sapiens)
chain: MARYMLLLLLAVWVLTGELWPGAEARAAPYGVRLCGREFIRAVIFTCGGSRWRRSDILAHEAMGDTFPDADADEDSLAGELDEAMGSSEWLALTKSPQAFYRGRPSWQGTPGVLRGSRDVLAGLSSSCCKWGCSKSEISSLC

Tests used:
SALPR [1] = molecular target: T1, SALPR (Homo sapiens, UniProt Q9NSD7); assay: Suppression of forskolin-increased transcription activity (CRE-PLAP reporter) in SALPR-SE302 cells; type: cell-based; details: forskolin 1 μmol/L, 1 day incubation, alkaline phosphatase reporter
T1 construct: expressed in transfected cells; host or cells: SE302 cells (HEK293 clone carrying a CRE-VIP promoter PLAP reporter), transduced with retrovirus vector pBabeCL(SALPR)IH and selected with hygromycin
T1 sequence (Q9NSD7 1-469): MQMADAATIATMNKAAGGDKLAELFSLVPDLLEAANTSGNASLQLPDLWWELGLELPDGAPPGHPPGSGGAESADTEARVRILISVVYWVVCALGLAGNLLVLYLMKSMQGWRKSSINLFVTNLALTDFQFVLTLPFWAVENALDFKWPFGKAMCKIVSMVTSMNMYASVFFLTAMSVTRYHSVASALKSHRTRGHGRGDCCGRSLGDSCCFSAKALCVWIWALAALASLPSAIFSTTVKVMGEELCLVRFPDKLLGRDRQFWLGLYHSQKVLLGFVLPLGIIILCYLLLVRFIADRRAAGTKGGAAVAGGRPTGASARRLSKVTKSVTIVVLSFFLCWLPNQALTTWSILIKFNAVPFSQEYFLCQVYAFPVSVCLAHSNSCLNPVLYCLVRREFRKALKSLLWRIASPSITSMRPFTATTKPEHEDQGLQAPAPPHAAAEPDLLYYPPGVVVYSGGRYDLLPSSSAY
Method: On the following day, relaxin-3 (Phoenix Pharmaceuticals) or insulin (Invitrogen) diluted with an assay medium (DMEM supplemented with 0.1% bovine serum albumin) in specified concentrations was added, after which forskolin (Calbiochem) was added to make a final concentration of 1 μmol/L. After 1 day incubation, 15 μl each of the cell supernatant was recovered and then transferred to a 96-well plate for chemiluminescence measurement (Sumitomo Bakelite), 60 μl of buffer solution for assay (280 mmol/L Na2CO3—NaHCO3, 8 mmol/L MgSO4, pH 10) and 70 μl of Lumiphos530 (Lumigen) were added and the reaction was carried out at room temperature for 1 hour, after which chemiluminescence for each well was measured by a fusion plate reader (Perkin Elmer) to assess the transcription activity.

[2] = Blood leptin concentration after single intracerebroventricular administration; type: in vivo, rat; details: rats, single icv administration, about 3 hours after administration, vs vehicle, t-test p<0.05
Method: The above-mentioned rats were anesthetized with Nembutal after the feeding measurement (about 3 hours after administration) and the blood was taken from the abdominal aorta. The blood taken was centrifuged at 1,750×g for 15 minutes and the resulting supernatant was stored at −80° C. Later, the amount of leptin in the supernatant was quantitatively determined by a rat leptin quantification ELISA kit (Amersham Bioscience).

[3] = Spontaneous locomotor activity under chronic intracerebroventricular administration; type: in vivo, rat; details: rats, chronic icv; light phase days 2 and 7, dark phase days 3 and 8
Method: Spontaneous locomotor activity was measured using a Versamax system (Accuscan) in the light phase and dark phase on days when significant difference in body weight increasing activity in the rats receiving relaxin-3 administration was recognized.

[4] = Amount of feeding after single intracerebroventricular administration; type: in vivo; details: Wistar male rats, single icv, about 50 pmol/rat, 2 hours after administration, vs vehicle, t-test p<0.01
Method: Wistar male rats (7 weeks of age; Japan Charles River) were fed feed for experimental animals (MF; Oriental Yeast) to be adapted. The rats (250 to 300 g) received cannulation into the lateral cerebroventricle under anesthesia. Administration experiments were carried out a week or later. Relaxin-3 (60 μg; Phoenix Pharmaceuticals) was dissolved in DMSO and added with an artificial cerebrospinal fluid to make a final concentration of 200 μmol/L. The deposited precipitate was removed by centrifugation and the resulting supernatant was used as a relaxin-3 administration solution. The amount of administration (relaxin-3 concentration in the administration solution) was about 50 pmol/rat when calculated using the standard curve with relaxin-3 in the experimental system shown in Example 7. Rats with guide cannula implantation were divided into 2 groups (6 animals per group) and administered with the relaxin-3 administration solution or a vehicle solution (a solution having the same composition as (2) above without relaxin-3) at a rate of 5 μl/2 minutes using an infusion pump. Immediately after the intracerebroventricular administration of the administration solution, rats were put in a cage where pre-weighed feed was placed and fed ad libitum. The amount of feeding was calculated by measuring the decrease in feed 2 hours later.

[5] = Epididymal fat weight, blood leptin and blood insulin after chronic intracerebroventricular administration; type: in vivo, rat; details: rats, chronic icv administration, day 14, vs vehicle
Method: After measuring body weight and the amount of feed on the last day of the experiment (day 14), the rats were anesthetized with Nembutal, epididymal fat was taken and the total fat weight was measured (FIG. 9). Further, the blood was taken from the abdominal aorta. The blood was centrifuged at 1,750×g for 15 minutes and the resulting supernatant was stored at −80° C. Later, the amount of leptin in the supernatant was quantitatively determined by a rat leptin measuring kit (L) (IBL) (FIG. 10A). Further, the amount of insulin in the supernatant was quantitatively determined by an ultra sensitive rat insulin measuring kit (Morinaga Institute of Biological Science) (FIG. 10B).

[6] = Body weight gain under chronic intracerebroventricular administration (locomotor study); type: in vivo, rat; details: Wistar male rats (5 weeks of age), chronic icv by osmotic pump, from day 1 after administration
Method: A relaxin-3 solution was prepared by dissolving relaxin-3 (Peptide Institute, Inc.) in physiological saline at a concentration of 100 μmol/L. A vehicle solution (physiological saline) or the relaxin-3 solution was poured into an osmotic pump (Alzet osmotic pump model 1002 (DURECT), delivering at 6 μ/day), a tube and a cannula for administration, after which they were connected together. Wistar male rats (5 weeks of age; Japan Charles River) were fed feed for experimental animals (MF; Oriental Yeast) and adapted to individual cages for 5 days. Under anesthesia, a guide cannula was inserted into the lateral cerebroventricle of these rats (170-200 g) and an osmotic pump was implanted under the skin. The operation date was set to be day 0. The rats had free access to feed and water and the body weight was measured every morning, except on days for locomotor activity measurement (FIG. 11).

[7] = Body weight gain and amount of feeding under chronic intracerebroventricular administration; type: in vivo, rat; details: Wistar male rats, chronic icv by osmotic pump, 100 μmol/L at 6 μl/day
Method: A relaxin-3 solution was prepared by dissolving relaxin-3 (Peptide Institute, Inc.) in physiological saline at a concentration of 100 μmol/L. A vehicle solution (physiological saline) or the relaxin-3 solution was poured into an osmotic pump (Alzet osmotic pump model 1002 (DURECT); delivering 6 μl/day), a tube and a cannula for administration, after which they were connected together. Wistar male rats (6 weeks of age; Japan Charles River) were fed feed for experimental animals (MF; Oriental Yeast) and adapted to individual cages for 4 days. Under anesthesia, a guide cannula was inserted into the lateral cerebroventricle of these rats (250-270 g) and an osmotic pump was implanted under the skin. The rats had free access to feed and their body weight and feeding were measured every morning. Further, the decrease in the amount of feed per day is shown as the amount of feeding (FIG. 8).

SALPR [8] = molecular target: T1, SALPR; assay: Screening for relaxin-3 antagonistic substance using SALPR-SE302 cells (CRE-PLAP reporter); type: cell-based; details: 3 μmol/L forskolin, relaxin-3 at 3 nmol/L

| Molecule | effect on increase in transcription activity by forskolin (SALPR [1]) | blood leptin concentration [2] | spontaneous locomotor activity (total for 90 minutes) [3] | amount of feeding [4] | amount of epididymal fat [5] | insulin concentration in blood [5] | leptin concentration in blood [5] | body weight increase [6] | amount of feeding ([7]; from day 1) | body weight increase ([7]; from day 1 after operation) | effect on increase in transcription activity by forskolin (SALPR [8]) |
| --- | --- | --- | --- | --- | --- | --- | --- | --- | --- | --- | --- |
| insulin: related peptide (Invitrogen) used as specificity control in the SALPR reporter test [reference compound] | not affected |  |  |  |  |  |  |  |  |  |  |
| B1 | suppressed via SALPR activation the increase in transcription activity by forskolin | significantly increased | No significant change in locomotor activity | significantly increased | significantly increased | significantly increased | significantly increased | significant increase in body weight | significant increase in the amount of feeding | significant increase in body weight | suppressed the increase in transcription activity by forskolin |
